This test concerns the target Myc-PTEN wild type (human) (UniProt P60484). Kind of test: native gel or EMSA. For orientation: Mobility shift assays separate free from complexed probe on a gel.

The term stoichiometry N denotes the number of molecules, sites or subunits per partner or assembly.

The substance “Myc-PTEN wild type, P60484 1-403 (natural protein; other documents disagree on this pair)” came in with a stoichiometry N of 2.
